From paper PMC2871033 (Structure (London, England : 1993), 2010)

Columns and labels:
[1] = target: T1, Cwf8-Myc13 (S. pombe Prp19) (S. pombe, UniProt O14011 1-488); experiment: co-IP
T1 sequence (looked up): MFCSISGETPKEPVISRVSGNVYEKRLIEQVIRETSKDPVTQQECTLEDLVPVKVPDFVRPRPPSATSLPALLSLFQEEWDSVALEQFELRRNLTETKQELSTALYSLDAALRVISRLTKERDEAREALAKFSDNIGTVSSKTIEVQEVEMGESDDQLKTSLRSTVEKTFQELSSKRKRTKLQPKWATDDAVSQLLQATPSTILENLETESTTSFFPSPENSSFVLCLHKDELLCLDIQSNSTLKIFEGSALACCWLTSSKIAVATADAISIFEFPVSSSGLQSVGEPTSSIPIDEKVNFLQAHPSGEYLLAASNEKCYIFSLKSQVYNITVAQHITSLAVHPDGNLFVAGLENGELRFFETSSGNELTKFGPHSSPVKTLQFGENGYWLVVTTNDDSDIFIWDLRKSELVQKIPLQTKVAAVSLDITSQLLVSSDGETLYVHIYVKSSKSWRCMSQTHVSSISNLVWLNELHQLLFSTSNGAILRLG

[2] = target: T2, Prp19, separately purified (analytical ultracentrifugation) (S. cerevisiae), P32523; experiment: AUC; details: remark: other sources report otherwise
T2 chain: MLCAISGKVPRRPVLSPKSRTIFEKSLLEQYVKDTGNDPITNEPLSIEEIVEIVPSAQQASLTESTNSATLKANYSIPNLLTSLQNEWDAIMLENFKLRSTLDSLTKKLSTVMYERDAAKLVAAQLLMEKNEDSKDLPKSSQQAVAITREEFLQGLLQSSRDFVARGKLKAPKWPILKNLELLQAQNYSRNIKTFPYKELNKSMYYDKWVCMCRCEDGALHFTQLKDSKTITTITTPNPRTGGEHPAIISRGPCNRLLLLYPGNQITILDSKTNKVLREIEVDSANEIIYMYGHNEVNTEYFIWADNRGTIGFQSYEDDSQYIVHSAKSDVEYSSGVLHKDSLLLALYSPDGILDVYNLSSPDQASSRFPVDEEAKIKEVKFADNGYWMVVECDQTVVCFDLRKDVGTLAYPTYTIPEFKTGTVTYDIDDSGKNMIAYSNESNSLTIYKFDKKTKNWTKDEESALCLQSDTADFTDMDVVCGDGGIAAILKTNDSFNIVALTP

B1: Cwf2-Myc13 (S. pombe Cwc2) (natural protein, UniProt P87126 1-388, looked up)
chain: MSENGLEQEVTVEEKNNDVTEKILVEGEKSKEYEETPRKVKIVKRKKQPARKQIETRPEYEMEPEQPGQVYNLWYNKWSGGMRQDPLKSQVKSETRCVISRDSGYTKADKNPGSFFCLYFARGMCSEGSKCEYLHRLPKDTDFFNANVDCFGREKHADYRDDMGGVGSFLRQNYTLYVGGITPTDDIEEIVSRHFAEWGDIERIRVLNSRGIAFITYLNEANAQFAKEAMAHQSLDHDECLNVRWATTDPNPASQARNQRRLEERAANAVKKLLPKQFLLDLEETKNGKSGNRKRKLELEFGLKGYVPSDDLLYADGANSVHNQLAANEFPNKSQSEEGSNDDHKSVTTTESQNKFVNSQILSDLQVAKQAVHTNQSALVSYYDSDED
**Q.** With B1 as the binder, how does the “stoichiometry N” value [1] read?
**A.** 2 copies of Cwf2 per four copies of Cwf8

B2: Prp19, separately purified (analytical ultracentrifugation), P32523 1-503 (natural protein)
chain: MLCAISGKVPRRPVLSPKSRTIFEKSLLEQYVKDTGNDPITNEPLSIEEIVEIVPSAQQASLTESTNSATLKANYSIPNLLTSLQNEWDAIMLENFKLRSTLDSLTKKLSTVMYERDAAKLVAAQLLMEKNEDSKDLPKSSQQAVAITREEFLQGLLQSSRDFVARGKLKAPKWPILKNLELLQAQNYSRNIKTFPYKELNKSMYYDKWVCMCRCEDGALHFTQLKDSKTITTITTPNPRTGGEHPAIISRGPCNRLLLLYPGNQITILDSKTNKVLREIEVDSANEIIYMYGHNEVNTEYFIWADNRGTIGFQSYEDDSQYIVHSAKSDVEYSSGVLHKDSLLLALYSPDGILDVYNLSSPDQASSRFPVDEEAKIKEVKFADNGYWMVVECDQTVVCFDLRKDVGTLAYPTYTIPEFKTGTVTYDIDDSGKNMIAYSNESNSLTIYKFDKKTKNWTKDEESALCLQSDTADFTDMDVVCGDGGIAAILKTNDSFNIVALTP
**Q.** How did the stoichiometry N [2] turn out when B2 was run?
**A.** 4
